The results in this text go back to publication PMC3416860, “TC10 Is Regulated by Caveolin in 3T3-L1 Adipocytes” (PLoS ONE, 2012).

In assay [1] the target is myc-Caveolin 1 wild-type (pKMyc-Caveolin 1) (UniProt Q03135). Kind of assay: co-IP; COS-1 cells co-transfected with myc-Caveolin 1 and HA-TC10 plasmids; lysed in HNTG buffer (50 mM HEPES pH 7.4, 150 mM NaCl, 10% glycerol, 1% Triton X-100); immunoprecipitated with anti-myc antibodies and Protein A/G beads, blotted for HA.
For assay [2], the target named is T1, GST-TC10 (Homo sapiens, UniProt P17081).
T1 construct: gene RHOQ; GST fusion (GST kept), expressed in E. coli Rosetta-gami (DE3), glutathione-agarose purified; plasmid from I. Macara
Put plainly: radioligand binding to GST-fusion on glutathione-agarose. The settings on record: 10 mM MgCl2, pH 7.5, room temperature, labelled compound.

The target of assay [3] is T2, GST-TC10 (human, UniProt P17081 1-205).
T2 construct: TC10 (RhoQ); Expression plasmid obtained from Dr. Ian Macara; Used as purified (with endogenous GDP) or preincubated with GDP or a nonhydrolyzable GTP analog; also called TC10-GDP; source: E. coli Rosetta-gami (DE3), purified (glutathione-agarose)
Kind of assay: pull-down; GST-TC10 on glutathione-agarose beads, preincubated with nucleotides as indicated (GDP or a nonhydrolyzable GTP analog), used to precipitate proteins from a 3T3-L1 adipocyte lysate; blot with anti-Caveolin antibodies. As to conditions: one partner purified.

Assay [4] addresses T2, GST-TC10. Put plainly: pull-down; purified MBP-Caveolin 1(1-99) and GST-TC10 incubated with GDP overnight at 4 C; glutathione agarose 1 h, washed, eluted in SDS sample buffer; blots with anti-GST or anti-MBP. The settings on record: both partners purified.

Some results are limits rather than exact numbers.

T2 sequence (P17081 whole entry): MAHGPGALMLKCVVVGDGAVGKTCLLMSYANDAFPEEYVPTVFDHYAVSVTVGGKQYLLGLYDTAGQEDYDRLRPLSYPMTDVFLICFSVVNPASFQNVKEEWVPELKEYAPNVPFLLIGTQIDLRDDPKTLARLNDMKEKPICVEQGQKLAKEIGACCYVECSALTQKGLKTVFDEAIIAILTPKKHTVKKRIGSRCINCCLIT
T1 sequence (P17081 whole entry, the tested form may be a part): as the sequence (P17081 whole entry) above

“HA-TC10 T31N (pKH3-TC10 T31N), dominant-interfering mutant (natural protein)”: in assay [1], the fold interaction against the constitutively active allele (Q75L) was over 10 fold.

Take `Nc1nc2c(ncn2[C@@H]2O[C@H](COP(=O)(O)OP(=O)(O)OP(O)(O)=S)[C@@H](O)[C@H]2O)c(=O)[nH]1` [GTPγS]: the “radioligand binding to GST-fusion on glutathione-agarose” value in assay [2] is “incubated radiolabeled GTPγS with recombinant GST, GST-TC10 or GST-Cdc42”.

Regarding “HA-TC10 Y37A/Y46A (pKH3-TC10 Y37A/Y46A) (natural protein)”, in assay [1], the percent decrease of co-immunoprecipitation against wild-type TC10 is over 75%.

B1: Caveolin 1, endogenous in 3T3-L1 adipocytes (natural protein, mouse (endogenous in 3T3-L1), UniProt P49817 1-178, looked up)
chain: MSGGKYVDSEGHLYTVPIREQGNIYKPNNKAMADEVTEKQVYDAHTKEIDLVNRDPKHLNDDVVKIDFEDVIAEPEGTHSFDGIWKASFTTFTVTKYWFYRLLSTIFGIPMALIWGIYFAILSFLHIWAVVPCIKSFLIEIQCISRVYSIYVHTFCDPLFEAIGKIFSNIRISTQKEI
notes: Caveolin 1, endogenous, detected with anti-Caveolin antibodies; source: endogenous, 3T3-L1 adipocyte lysate
On to B1, for which, in assay [3], the “fold enhancement of the interaction after GDP binding” value is about 2 fold.

B2: MBP-Caveolin 1(1-99) (domain or fragment, UniProt Q03135 1-99, looked up)
chain: MSGGKYVDSEGHLYTVPIREQGNIYKPNNKAMADELSEKQVYDAHTKEIDLVNRDPKHLNDDVVKIDFEDVIAEPEGTHSFDGIWKASFTTFTVTKYWF
notes: Caveolin 1, the first 99 amino acids; The vector may add further tags and a TEV site; source: E. coli Rosetta-gami (DE3), purified (amylose resin)
As to B2, the “fold precipitated with TC10-GDP against GTP analog bound TC10” value in assay [4] was over 4 fold.
